Results on six molecules are retold here after paper PMC7841142.

In assay [1] the target is Ncam1b, membrane-bound, Myc- and 6x His-tagged (complete coding sequence), on CHO-K1 cells (zebrafish). Briefly: immunostaining of cells or tissue; cell overlay assay: transfected CHO-K1 cells (membrane-bound His-tagged protein) on fibronectin-coated coverslips incubated with 20 μg/ml soluble Fc-tagged protein for 1 h at room temperature, washed, fixed, stained with anti-His and anti-hFcγ; read out as binding coefficient (percent of transfected cells co-labelled) and as fluorescence intensity of transfected vs. untransfected cells.

Assay [2] addresses Ncam1a, Myc- and 6x His-tagged (complete coding sequence), in Hek293 cells (zebrafish). Briefly: co-IP; Hek293 cells co-transfected with Myc/His-tagged Ncam1a or Ncam1b and FLAG-tagged Fgfr1a-IIIb or -IIIc; lysates precipitated with anti-His antibody and ProteinA beads, blotted with biotinylated FLAG-antibody; band density by Fiji, three independent experiments.
Assay [3] has as its target Ncam1b, Myc- and 6x His-tagged (complete coding sequence), in Hek293 cells (zebrafish). The assay is described as above.
Assay [4] has as its target Fgfr1a-IIIb, membrane-bound, Myc- and 6x His-tagged (complete coding sequence, exon 9.1 variant), on CHO-K1 cells (zebrafish). Briefly: immunostaining of cells or tissue; cell overlay assay: transfected CHO-K1 cells (membrane-bound His-tagged protein) on fibronectin-coated coverslips incubated with 20 μg/ml soluble Fc-tagged protein for 1 h at room temperature, washed, fixed, stained with anti-His and anti-hFcγ; read out as binding coefficient (percent of transfected cells co-labelled) and as fluorescence intensity of transfected vs. untransfected cells.

Assay [5] has as its target T1, Fgfr1a-IIIc, membrane-bound, Myc- and 6x His-tagged (complete coding sequence), on CHO-K1 cells (zebrafish), Q90Z00.
T1 chain: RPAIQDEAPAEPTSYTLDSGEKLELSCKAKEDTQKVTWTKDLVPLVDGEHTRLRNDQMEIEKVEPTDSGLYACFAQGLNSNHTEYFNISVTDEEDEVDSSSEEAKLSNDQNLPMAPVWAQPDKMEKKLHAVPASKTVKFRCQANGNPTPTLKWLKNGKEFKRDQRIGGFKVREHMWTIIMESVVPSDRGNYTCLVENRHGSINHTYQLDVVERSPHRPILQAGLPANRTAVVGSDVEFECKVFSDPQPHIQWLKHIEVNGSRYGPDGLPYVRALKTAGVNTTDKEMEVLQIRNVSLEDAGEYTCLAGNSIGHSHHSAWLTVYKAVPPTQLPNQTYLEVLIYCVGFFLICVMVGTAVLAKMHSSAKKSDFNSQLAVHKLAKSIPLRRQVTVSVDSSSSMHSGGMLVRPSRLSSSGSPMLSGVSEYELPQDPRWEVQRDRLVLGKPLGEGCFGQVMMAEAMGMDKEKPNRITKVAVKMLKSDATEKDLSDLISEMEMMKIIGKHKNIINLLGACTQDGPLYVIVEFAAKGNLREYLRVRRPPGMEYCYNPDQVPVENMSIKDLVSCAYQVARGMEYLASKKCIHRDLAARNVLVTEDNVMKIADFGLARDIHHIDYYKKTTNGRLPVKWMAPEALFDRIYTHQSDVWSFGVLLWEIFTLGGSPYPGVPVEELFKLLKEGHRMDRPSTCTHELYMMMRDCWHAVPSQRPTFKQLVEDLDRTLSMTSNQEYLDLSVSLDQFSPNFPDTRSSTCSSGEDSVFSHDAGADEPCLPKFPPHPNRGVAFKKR
Briefly: immunostaining of cells or tissue; cell overlay assay: transfected CHO-K1 cells (membrane-bound His-tagged protein) on fibronectin-coated coverslips incubated with 20 μg/ml soluble Fc-tagged protein for 1 h at room temperature, washed, fixed, stained with anti-His and anti-hFcγ; read out as binding coefficient (percent of transfected cells co-labelled) and as fluorescence intensity of transfected vs. untransfected ….

“And” between values parts separate entries of the source, which are not always exact repeats. Identical values can stand only once.

Ncam1a, Myc- and 6x His-tagged (complete coding sequence), in Hek293 cells (zebrafish), sequence (main, as listed by the source): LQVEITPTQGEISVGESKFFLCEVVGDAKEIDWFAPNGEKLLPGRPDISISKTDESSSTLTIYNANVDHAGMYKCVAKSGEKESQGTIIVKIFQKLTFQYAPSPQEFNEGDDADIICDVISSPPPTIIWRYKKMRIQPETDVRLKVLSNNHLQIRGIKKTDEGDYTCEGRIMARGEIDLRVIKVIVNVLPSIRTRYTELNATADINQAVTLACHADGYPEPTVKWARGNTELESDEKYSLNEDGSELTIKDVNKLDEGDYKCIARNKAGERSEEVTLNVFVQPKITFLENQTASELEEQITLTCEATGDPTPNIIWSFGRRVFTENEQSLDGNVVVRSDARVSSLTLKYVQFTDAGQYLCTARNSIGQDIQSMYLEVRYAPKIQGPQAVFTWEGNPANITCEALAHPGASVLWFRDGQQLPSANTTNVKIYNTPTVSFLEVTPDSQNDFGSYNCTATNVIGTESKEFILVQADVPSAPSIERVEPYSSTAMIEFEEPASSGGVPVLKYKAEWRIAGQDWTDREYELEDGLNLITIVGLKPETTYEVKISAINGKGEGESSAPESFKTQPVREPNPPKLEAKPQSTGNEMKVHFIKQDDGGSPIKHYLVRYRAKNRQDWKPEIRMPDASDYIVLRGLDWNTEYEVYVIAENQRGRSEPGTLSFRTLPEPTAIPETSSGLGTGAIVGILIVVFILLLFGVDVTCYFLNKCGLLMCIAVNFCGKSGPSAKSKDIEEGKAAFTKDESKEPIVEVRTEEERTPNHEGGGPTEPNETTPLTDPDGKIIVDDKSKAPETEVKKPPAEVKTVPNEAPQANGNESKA

In the case of “soluble Fgfr1a-IIIb-Fc (extracellular part of Fgfr1a-IIIb with hIgG-Fc-Tag) (Fc fusion)”, the binding coefficient (percent of transfected cells co-labelled for the soluble partner) in assay [1] turned out to be 90%.
On to “Fgfr1a-IIIc, FLAG-tagged (complete coding sequence), in Hek293 cells (from UniProt Q90Z00 27-810) (receptor)”, for which the band density (Intensity Density) of co-precipitated FLAG-tagged receptor (Intensity Density) in assay [2] turned out to be 117000; in assay [3], 138000.
In assay [4], “soluble Ncam1b-Fc (extracellular part of Ncam1b with hIgG-Fc-Tag) (Fc fusion)” gave a binding coefficient (percent of transfected cells co-labelled for the soluble partner) of 90% and a fluorescence intensity of bound soluble Ncam1b, transfected over untransfected cells of 80 % higher.
For “Fgfr1a-IIIb, FLAG-tagged (complete coding sequence), in Hek293 cells (receptor)”, the band density (Intensity Density) of co-precipitated FLAG-tagged receptor (Intensity Density) is 89500 in assay [2]; 170000 and 203000 in assay [3].
“soluble Fgfr1a-IIIc-Fc (extracellular part of Fgfr1a-IIIc with hIgG-Fc-Tag) (from UniProt Q90Z00 27-363) (Fc fusion)” registered a binding coefficient (percent of transfected cells co-labelled for the soluble partner) in assay [1] of 60%.

B1: soluble Ncam1b-Fc (extracellular part of Ncam1b with hIgG-Fc-Tag) (Fc fusion)
chain: LQVDITPAHGEISVGESRFFLCEVIGGAKEIDWFAPAGEKIEPGRPDISVIRNDETSSTLTIYNAKVDNAGTYRCVASSGDQDAEATVNLKIYQKITFTNVPSPQEFTEGDNAIIVCDVISSPPPTVLWKYKGAKIQFDKDVRFKTLSNNHLQIRGIRKTDEGVYTCEGRIKARGEVDFRSIKVVVNVLPTIRIRQAETNATADMGFSTLLACDPDGFPEPIVTWRRNNAPLESGNKYSFNEDGSEMTVLDVTKLDEGDYTCIAKNKAGESEQELSLKVFVQPKITYLESQTTTEMDEQVTLTCEATGDPTPTITWSFGTRVFTEGEQASWTRPEQHKGPDGEVLVRSDARVSSLTLKYPQYTDAGQYLCTARNAIGETVQPVSLEVRYAPKILGSVAVYTWEGNPANISCEVLAHPSDVSITWLRDGFQLPNANTSNIKIHNTPSASYLEVNPESQSDFGNYNCTASNEIGTESREFIMIPADVPSAPSIGEVQPYSSTAQVLFEEPESTGGVPVLKYRAEWRAVGRGKWVQRVYEVKDGLSSVTVTGLKPETDYEVKMSAINGKGEGDSSPSMVFKTEHVQGEPSPPILEGTLQPKGNSLKVKWIKQDDGGSPITHYLVRYKAREDSEWKPEIRLPSGSEYVMLIGLDWDTEYDVFVVAENQQGKSKPGTLTFRTSSEPTATTDSMEDGPGLNTG
modifications: not checked
B1 returned a binding coefficient (percent of transfected cells co-labelled for the soluble partner) in assay [5] of 60%.
